B1: PDZ and LIM domain protein 2, residues 284 to 339; numbered along this chain, Q96JY6 (parent)
chain: HTCEKCSTSIANQAVRIQEGRYRHPGCYTCADCGLNLKMRGHFWVGDELYCEKHAR

± gives the uncertainty stated by the source.

In the data set the parent is B1. The data set can be described thus: abundance fitness (aPCA) (normalised: wild type 0, dead -1); higher = more abundant; growth selection in yeast, the domain comes from the species named. The settings on record: Homo sapiens.
For A11P, the abundance fitness turned out to be 0.118 ± 0.11.
The value for A11S was 0.196 ± 0.073; that for A11F was -1.16 ± 0.49; that for A11L was -0.827 ± 0.12.
The value for F43G was -0.048 ± 0.049; that for F43Y was -0.145 ± 0.11.
Under F43D stands 0.087 ± 0.066; under F43S, -0.056 ± 0.084.
As to F43K, the abundance fitness was -0.381 ± 0.12.
Under F43E stands -0.057 ± 0.1; under F43T, -0.04 ± 0.085; under P25Y, -0.414 ± 0.27.
Under P25V stands -0.169 ± 0.072; under P25S, 0.118 ± 0.068.
The value for P25D was 0.323 ± 0.075; that for P25A was 0.113 ± 0.093; that for P25M was 0.075 ± 0.085.
For P25C, the abundance fitness is -0.546 ± 0.19.
In the case of E52P, the abundance fitness is 0.183 ± 0.12.
The value for E52S was -0.352 ± 0.094; that for E52V was -0.605 ± 0.15; that for E52A was -0.183 ± 0.059.
Under E52L stands -0.156 ± 0.098.
The value for E52M was -0.152 ± 0.08; that for E52F was -0.075 ± 0.14.
As to C33E, the abundance fitness is -1.05 ± 0.18.
As to C33N, the abundance fitness is -0.741 ± 0.083.
Under C33M stands -0.947 ± 0.079.
The value for G34K was 0.073 ± 0.089; that for G34I was -0.352 ± 0.2; that for G34H was 0.2 ± 0.17.
Under G34P stands -0.356 ± 0.073; under C3F, -0.483 ± 0.11.
On to C3R, for which the abundance fitness is -0.847 ± 0.059.
The value for C3M was -0.856 ± 0.096; that for C3V was -0.983 ± 0.18.
Under C3K stands -0.45 ± 0.12.
Under C3Y stands -0.436 ± 0.13.
In the case of C3P, the abundance fitness was -0.968 ± 0.15.
The value for C3E was -0.986 ± 0.23; that for C3A was -1.1 ± 0.2; that for I17T was -0.311 ± 0.079.
The value for I17A was -0.341 ± 0.1.
The value for I17E was -0.325 ± 0.11; that for I17Y was -0.437 ± 0.18; that for I17H was -0.781 ± 0.13.
For I17P, the abundance fitness was -0.336 ± 0.062.
The value for I17D was -0.232 ± 0.3.
The value for I17C was -0.453 ± 0.098.
Regarding I17G, the abundance fitness is -0.239 ± 0.083.
Take G20P: the abundance fitness is -0.63 ± 0.13.
The value for G20W was -0.497 ± 0.12.
Under G20Y stands -0.174 ± 0.082; under G20Q, -0.56 ± 0.22.
The value for G20I was -0.257 ± 0.091; that for G20K was -0.023 ± 0.17.
For L49S, the abundance fitness was -0.341 ± 0.081.
The value for L49P was -0.154 ± 0.12.
Under L49Y stands -0.269 ± 0.25.
The value for L49W was -0.39 ± 0.11; that for L49R was -0.885 ± 0.13; that for L49A was -0.159 ± 0.068.
For L49T, the abundance fitness was -0.207 ± 0.097.
The value for L49K was -0.733 ± 0.14; that for H42D was 0.078 ± 0.076.
The value for H42L was 0.178 ± 0.084; that for H42W was -0.233 ± 0.064; that for H42K was -0.113 ± 0.064.
As for H42V, the abundance fitness was -0.064 ± 0.081.
As to H42S, the abundance fitness is 0.022 ± 0.065.
Under E4H stands 0.069 ± 0.15; under E4L, -0.473 ± 0.066.
As to E4D, the abundance fitness is -0.063 ± 0.17.
The value for E4F was 0.075 ± 0.1.
The value for E4Q was -0.16 ± 0.093.
Under C51Q stands -0.696 ± 0.35; under C51T, -1.16 ± 0.27; under C51S, -0.609 ± 0.12.
For C51I, the abundance fitness was -0.523 ± 0.37.
The value for C51W was -1.05 ± 0.15; that for E48R was -0.079 ± 0.08.
Under E48N stands 0.203 ± 0.14; under E48I, -0.174 ± 0.11.
Under E48Q stands -0.292 ± 0.14; under E48D, -0.065 ± 0.19.
As for E48L, the abundance fitness is -0.082 ± 0.09.
The value for E48A was -0.091 ± 0.061.
For C27E, the abundance fitness is -0.105 ± 0.12.
Under C27T stands -0.442 ± 0.071.
The value for C27G was -0.514 ± 0.098; that for C27W was -0.602 ± 0.12.
The value for C27L was -0.535 ± 0.062.
Regarding C27R, the abundance fitness is -0.838 ± 0.12.
Turning to C27P, the abundance fitness is -0.425 ± 0.083.
The value for G26C was 0.006 ± 0.11; that for G26S was 0.069 ± 0.071; that for G26V was 0.101 ± 0.071.
For G26W, the abundance fitness was determined as 0.072 ± 0.1.
Under G26R stands 0.127 ± 0.068; under G26L, 0.122 ± 0.064.
The value for G26K was 0.209 ± 0.084.
For the variant G26E, the abundance fitness was 0.277 ± 0.11.
For V45L, the abundance fitness was -0.063 ± 0.073.
Turning to V45Q, the abundance fitness is -0.092 ± 0.12.
For V45D, the abundance fitness is -0.434 ± 0.12.
The value for V45N was -0.155 ± 0.089; that for V45S was -0.11 ± 0.072; that for V45G was 0.107 ± 0.061.
Under V45P stands -0.361 ± 0.12; under V45M, -0.057 ± 0.07.
Under V45W stands -0.116 ± 0.094.
On to V45T, for which the abundance fitness is -0.585 ± 0.12.
The value for D32Y was -0.106 ± 0.087.
The value for D32E was -0.171 ± 0.083.
The value for D32V was -0.245 ± 0.093; that for D32C was -0.188 ± 0.12; that for A55I was -0.203 ± 0.26.
As for A55D, the abundance fitness is -0.097 ± 0.11.
Under A55W stands 0.063 ± 0.056; under A55C, -0.108 ± 0.1; under A55V, -0.172 ± 0.084.
The value for T8I was -0.361 ± 0.15; that for T8W was -0.068 ± 0.069; that for T8E was 0.387 ± 0.1.
With T8D, the abundance fitness amounted to 0.232 ± 0.1.
Under T8H stands 0.173 ± 0.095.
The value for D47W was -0.1 ± 0.059; that for D47S was 0.004 ± 0.077.
On to D47M, for which the abundance fitness was -0.086 ± 0.11.
For the variant D47F, the abundance fitness is -0.339 ± 0.21.
As for D47L, the abundance fitness is -0.026 ± 0.073.
The value for D47V was -0.229 ± 0.089.
Consider T2G, for which the abundance fitness is -0.899 ± 0.13.
The value for T2Q was -0.339 ± 0.08.
On to T2N, for which the abundance fitness was determined as 0.177 ± 0.11.
Under G46K stands 0.019 ± 0.12.
The value for G46C was -0.202 ± 0.16.
The value for G46R was -0.031 ± 0.067; that for G46Q was -0.206 ± 0.11; that for G46T was -0.202 ± 0.095.
In the case of G46W, the abundance fitness was -0.429 ± 0.17.
The value for H54D was 0.128 ± 0.065.
The value for H54N was -0.465 ± 0.33.
The value for H54G was -0.317 ± 0.12.
Regarding H54K, the abundance fitness is -0.7 ± 0.33.
Turning to S7N, the abundance fitness is -0.294 ± 0.18.
Under S7Y stands -0.614 ± 0.2.
The value for S7E was -0.878 ± 0.26.
Under S7V stands -0.16 ± 0.095; under N36E, 0.099 ± 0.081; under N36P, 0.108 ± 0.13.
Turning to N36A, the abundance fitness was -0.104 ± 0.06.
As for N36T, the abundance fitness was -0.125 ± 0.061.
The value for N36I was -0.127 ± 0.16.
The value for K5N was 0.269 ± 0.16; that for K5T was 0.104 ± 0.13; that for K5Q was 0.165 ± 0.12.
As to K5E, the abundance fitness amounted to 0.038 ± 0.13.
For the variant K5I, the abundance fitness was found to be 0.463 ± 0.14.
The value for K5C was -0.068 ± 0.13.
The value for G41Q was -0.076 ± 0.086; that for G41W was -0.797 ± 0.072.
Turning to G41V, the abundance fitness is -0.434 ± 0.088.
The value for G41I was -0.673 ± 0.11; that for G41A was -0.139 ± 0.058; that for C30T was -0.642 ± 0.07.
Take C30H: the abundance fitness is -0.669 ± 0.47.
